According to IntAct's records for PubMed 16777958:

Biological target: ack1_mouse Tnk2 (UniProt O54967)
Sequence (O54967 whole entry): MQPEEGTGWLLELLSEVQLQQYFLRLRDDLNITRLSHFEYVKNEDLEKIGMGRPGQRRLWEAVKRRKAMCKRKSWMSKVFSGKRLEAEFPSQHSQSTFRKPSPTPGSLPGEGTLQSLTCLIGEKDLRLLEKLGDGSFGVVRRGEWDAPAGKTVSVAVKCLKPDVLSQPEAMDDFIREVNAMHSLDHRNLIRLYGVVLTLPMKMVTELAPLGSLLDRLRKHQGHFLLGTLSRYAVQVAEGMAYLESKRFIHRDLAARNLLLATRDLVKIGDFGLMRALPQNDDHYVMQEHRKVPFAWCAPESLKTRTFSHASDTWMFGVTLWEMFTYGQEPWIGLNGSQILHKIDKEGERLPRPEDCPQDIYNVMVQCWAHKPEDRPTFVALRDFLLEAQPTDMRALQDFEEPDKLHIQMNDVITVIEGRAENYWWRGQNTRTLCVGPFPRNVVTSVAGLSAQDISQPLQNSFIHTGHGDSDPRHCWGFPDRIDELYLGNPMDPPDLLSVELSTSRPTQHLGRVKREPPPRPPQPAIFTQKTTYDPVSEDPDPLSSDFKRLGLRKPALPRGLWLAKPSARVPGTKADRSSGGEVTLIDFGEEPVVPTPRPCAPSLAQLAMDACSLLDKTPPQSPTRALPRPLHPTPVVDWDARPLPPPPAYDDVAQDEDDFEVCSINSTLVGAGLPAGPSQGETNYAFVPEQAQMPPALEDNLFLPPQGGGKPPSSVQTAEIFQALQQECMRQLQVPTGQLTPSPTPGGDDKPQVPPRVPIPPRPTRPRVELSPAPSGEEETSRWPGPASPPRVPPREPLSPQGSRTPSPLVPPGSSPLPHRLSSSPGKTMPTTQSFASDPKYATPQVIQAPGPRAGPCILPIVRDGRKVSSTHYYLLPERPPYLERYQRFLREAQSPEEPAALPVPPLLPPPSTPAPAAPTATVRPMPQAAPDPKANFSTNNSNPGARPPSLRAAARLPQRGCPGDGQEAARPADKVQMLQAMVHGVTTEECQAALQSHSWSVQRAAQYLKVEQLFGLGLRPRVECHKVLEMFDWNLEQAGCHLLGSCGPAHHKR

SH2/SH3 adapter protein NCK1 (Homo sapiens) (from UniProt P16333-1) R308A
effect of a mutation on the interaction: disrupting interaction strength
